These results are taken from the supplement of paper PMC6379048.

Test in all cases: Kd (EC50 corrected by depletion factor)
One data set concerns the target SRSF10 (UniProt O75494). The procedure, abridged:
(§1)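 Over three biological replicates and two independent experiments, proteins captured on NHS-Sepharose beads carrying 5′-amino-C6 RNA oligos were quantified by label-free LC-MS/MS and normalised to the control. Capture lasted 30 min at 4°C and followed a 1 h pre-incubation at 4°C of HEK293-FT lysate (2.5 mg protein/well) with the same oligos in free form (0 nM to 30 μM). EC50 was taken from a four-parameter log-logistic fit, and Kd was EC50 corrected by a protein-dependent depletion factor.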

The target in a further data set is PTBP3 (UniProt O95758). The essentials:
as §1

The target of a further data set is T1, PABPN1 (UniProt Q86U42).
T1 sequence: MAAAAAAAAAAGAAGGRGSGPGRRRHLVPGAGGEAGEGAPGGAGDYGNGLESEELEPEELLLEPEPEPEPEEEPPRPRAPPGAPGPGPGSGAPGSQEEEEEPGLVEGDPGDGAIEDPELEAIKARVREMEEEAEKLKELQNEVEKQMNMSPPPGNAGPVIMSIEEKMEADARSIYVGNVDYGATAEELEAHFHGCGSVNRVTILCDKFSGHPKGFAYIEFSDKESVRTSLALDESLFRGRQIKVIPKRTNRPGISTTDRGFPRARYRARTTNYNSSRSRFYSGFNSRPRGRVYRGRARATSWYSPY
The procedure, abridged:
as §1

The next data set has as its target U2AF2 (UniProt P26368). The essentials: as §1
Another data set addresses T2, CPSF7 (UniProt Q8N684).
T2 sequence: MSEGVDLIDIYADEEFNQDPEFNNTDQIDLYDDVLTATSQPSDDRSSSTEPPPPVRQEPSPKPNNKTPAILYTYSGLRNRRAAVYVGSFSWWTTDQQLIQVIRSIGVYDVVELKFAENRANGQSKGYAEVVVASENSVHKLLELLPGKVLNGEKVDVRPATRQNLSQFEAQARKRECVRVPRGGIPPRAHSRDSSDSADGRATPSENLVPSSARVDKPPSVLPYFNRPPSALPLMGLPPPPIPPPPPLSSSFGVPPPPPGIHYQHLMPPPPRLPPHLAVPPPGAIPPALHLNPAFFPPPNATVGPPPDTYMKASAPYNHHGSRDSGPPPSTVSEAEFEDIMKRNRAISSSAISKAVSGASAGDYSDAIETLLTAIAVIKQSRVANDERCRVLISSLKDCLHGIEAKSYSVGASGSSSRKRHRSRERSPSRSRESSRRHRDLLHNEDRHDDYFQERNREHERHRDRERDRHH
The essentials: as §1

The next data set has as its target MRPL43 (UniProt Q8N983). The procedure, abridged:
as §1

Another data set deals with MRPL17 (UniProt Q9NRX2). The procedure, abridged: as §1
In a further data set the target is RPS10 (UniProt P46783). The essentials:
as §1

In a further data set the target is T3, SRSF4 (UniProt Q08170).
T3 sequence: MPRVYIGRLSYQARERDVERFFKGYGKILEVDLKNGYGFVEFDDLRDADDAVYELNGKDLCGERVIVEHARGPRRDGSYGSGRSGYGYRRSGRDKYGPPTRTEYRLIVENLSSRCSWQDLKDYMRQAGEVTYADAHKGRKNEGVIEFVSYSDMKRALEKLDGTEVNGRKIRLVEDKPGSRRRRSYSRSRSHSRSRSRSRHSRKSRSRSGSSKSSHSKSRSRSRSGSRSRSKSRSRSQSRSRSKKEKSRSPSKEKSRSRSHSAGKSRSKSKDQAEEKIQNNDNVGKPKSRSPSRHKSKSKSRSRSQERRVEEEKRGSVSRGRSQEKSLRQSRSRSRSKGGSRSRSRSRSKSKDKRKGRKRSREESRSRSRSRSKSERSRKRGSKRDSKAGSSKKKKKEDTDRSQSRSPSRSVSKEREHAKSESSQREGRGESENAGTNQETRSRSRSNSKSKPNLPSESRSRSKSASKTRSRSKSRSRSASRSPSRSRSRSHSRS
The essentials: as §1

The target of the next data set is PCBP2 (UniProt Q15366). The procedure, abridged: as §1
The target of the next data set is T4, CSTF3 (UniProt Q12996).
T4 sequence: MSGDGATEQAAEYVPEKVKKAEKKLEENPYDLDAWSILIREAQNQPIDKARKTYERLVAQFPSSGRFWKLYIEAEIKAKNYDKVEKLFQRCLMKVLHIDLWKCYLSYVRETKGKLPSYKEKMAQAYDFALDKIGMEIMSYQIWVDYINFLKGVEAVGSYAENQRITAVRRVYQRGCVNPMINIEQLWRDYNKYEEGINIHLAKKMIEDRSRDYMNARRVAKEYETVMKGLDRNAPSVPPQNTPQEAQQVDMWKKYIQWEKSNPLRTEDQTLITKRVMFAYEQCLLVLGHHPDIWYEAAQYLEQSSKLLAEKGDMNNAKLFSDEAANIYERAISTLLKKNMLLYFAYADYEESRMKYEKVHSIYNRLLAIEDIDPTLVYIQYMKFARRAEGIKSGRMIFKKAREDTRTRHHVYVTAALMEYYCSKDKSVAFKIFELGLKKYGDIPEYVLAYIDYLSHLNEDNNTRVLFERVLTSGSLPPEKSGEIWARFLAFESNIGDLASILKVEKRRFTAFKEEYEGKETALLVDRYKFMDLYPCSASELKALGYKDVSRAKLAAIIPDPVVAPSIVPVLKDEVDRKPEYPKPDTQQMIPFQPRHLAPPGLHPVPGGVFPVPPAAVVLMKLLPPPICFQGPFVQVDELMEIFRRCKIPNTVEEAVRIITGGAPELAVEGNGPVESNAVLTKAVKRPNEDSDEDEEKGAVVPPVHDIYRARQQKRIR
The essentials:
as §1

A further data set concerns the target TSN (UniProt Q15631). The essentials:
as §1

Another data set addresses MRPS25 (UniProt P82663). The procedure, abridged:
as §1

A further data set has as its target TOE1 (UniProt Q96GM8). The essentials:
as §1

Sequence of SRSF10 (O75494 whole entry): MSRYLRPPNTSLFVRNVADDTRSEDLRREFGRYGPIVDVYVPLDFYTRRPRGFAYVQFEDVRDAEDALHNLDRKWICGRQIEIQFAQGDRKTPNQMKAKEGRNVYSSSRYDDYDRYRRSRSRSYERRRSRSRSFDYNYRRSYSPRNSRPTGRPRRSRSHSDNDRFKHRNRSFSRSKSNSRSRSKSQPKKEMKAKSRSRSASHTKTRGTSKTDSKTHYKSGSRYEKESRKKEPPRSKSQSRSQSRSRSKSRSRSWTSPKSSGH
Sequence of TSN (Q15631 whole entry): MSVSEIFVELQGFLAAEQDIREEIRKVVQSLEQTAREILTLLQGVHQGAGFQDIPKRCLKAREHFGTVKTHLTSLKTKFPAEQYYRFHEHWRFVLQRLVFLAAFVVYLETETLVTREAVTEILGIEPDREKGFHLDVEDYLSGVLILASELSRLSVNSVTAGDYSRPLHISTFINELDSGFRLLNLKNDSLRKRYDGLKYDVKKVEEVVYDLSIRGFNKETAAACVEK
Sequence of PCBP2 (Q15366 whole entry): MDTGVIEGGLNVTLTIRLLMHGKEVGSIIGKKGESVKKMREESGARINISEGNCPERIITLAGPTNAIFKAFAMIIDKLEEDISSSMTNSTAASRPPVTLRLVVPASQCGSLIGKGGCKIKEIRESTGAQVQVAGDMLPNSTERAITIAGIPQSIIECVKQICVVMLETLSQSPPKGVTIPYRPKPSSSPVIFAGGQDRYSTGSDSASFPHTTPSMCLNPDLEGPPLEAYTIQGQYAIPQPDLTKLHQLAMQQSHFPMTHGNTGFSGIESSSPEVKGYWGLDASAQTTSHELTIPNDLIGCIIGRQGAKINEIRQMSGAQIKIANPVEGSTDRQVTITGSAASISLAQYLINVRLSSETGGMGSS
Sequence of U2AF2 (P26368 whole entry): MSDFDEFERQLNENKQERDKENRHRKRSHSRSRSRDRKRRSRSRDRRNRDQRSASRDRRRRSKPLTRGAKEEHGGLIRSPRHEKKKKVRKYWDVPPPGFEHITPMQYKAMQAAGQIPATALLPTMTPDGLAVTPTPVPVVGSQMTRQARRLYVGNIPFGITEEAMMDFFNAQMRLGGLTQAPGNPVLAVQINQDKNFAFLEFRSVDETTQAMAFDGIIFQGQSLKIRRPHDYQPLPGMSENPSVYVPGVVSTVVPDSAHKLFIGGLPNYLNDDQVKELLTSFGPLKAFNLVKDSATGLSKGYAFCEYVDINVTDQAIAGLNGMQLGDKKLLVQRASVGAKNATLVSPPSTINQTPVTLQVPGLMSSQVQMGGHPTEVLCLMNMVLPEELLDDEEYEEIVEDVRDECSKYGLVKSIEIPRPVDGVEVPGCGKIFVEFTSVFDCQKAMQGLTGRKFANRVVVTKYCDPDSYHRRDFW
Sequence of PTBP3 (O95758 whole entry): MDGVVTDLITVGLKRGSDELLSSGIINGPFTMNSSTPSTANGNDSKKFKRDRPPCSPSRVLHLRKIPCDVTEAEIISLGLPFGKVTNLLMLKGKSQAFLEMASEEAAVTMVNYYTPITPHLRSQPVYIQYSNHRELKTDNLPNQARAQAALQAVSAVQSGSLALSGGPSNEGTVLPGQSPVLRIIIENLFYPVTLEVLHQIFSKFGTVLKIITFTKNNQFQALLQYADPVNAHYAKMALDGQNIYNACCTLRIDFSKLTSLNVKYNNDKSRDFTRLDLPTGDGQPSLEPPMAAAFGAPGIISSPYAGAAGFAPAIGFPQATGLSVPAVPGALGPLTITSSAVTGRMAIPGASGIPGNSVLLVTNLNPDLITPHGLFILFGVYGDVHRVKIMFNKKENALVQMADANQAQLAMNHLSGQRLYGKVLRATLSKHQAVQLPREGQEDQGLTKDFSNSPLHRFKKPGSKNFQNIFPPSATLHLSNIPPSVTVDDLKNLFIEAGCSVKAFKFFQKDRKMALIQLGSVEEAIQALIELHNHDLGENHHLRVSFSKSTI

The term Kd denotes the free concentration of one partner at which half of the binding sites on the other are occupied at equilibrium, for simple one-to-one binding. A higher Kd goes with weaker binding. For AAUAAA, the Kd with SRSF10 worked out at 156 nM; with PTBP3, 1290 nM; in the data set with PABPN1 it was 368 nM; with U2AF2, 106 nM; with CPSF7, 2100 nM.
With CUGUCCU, the dissociation constant Kd with MRPL43 was determined as 40.4 nM; with MRPL17, 20.4 nM; in the data set with RPS10, 116 nM; with SRSF4 it was 312 nM; with PCBP2, 1240 nM.
Turning to UAUUUAU, the Kd in the data set with CSTF3 was 352 nM; with TSN, 16.8 nM; with MRPS25, 12.4 nM; in the data set with TOE1 it was 1020 nM.
